B1: TFMG: as TFG with an MMP-2 cleavable linker (GPLGLAG) between ferritin fragment C-terminus and PC-Gla (apparently SEQ ID NO: 15) (protein)
chain: MGGTTFLLRNASGHMSSQIRQNYSTDVEAAVNSLVNLYLQASYTYLSLGFYFDRDDVALEGVSHFFRELAEEKREGYERLLKMQNQRGGRIFLQDIKKPAEDEWGKTPDAMKAAMALEKKLNQALLDLHALGSARTDPHLCDFLETHFLDEEVKLIKKMGDHLTNLHRLGGGSEFVDGGGSGTSGPLGLAGANSFLEELRHSSLERECIEEICDFEEAKEIFQNVDDTLAFWSKHVLEHHHHHH
modifications: Fusion polypeptide (2)
B2: TFG: fusion polypeptide: TRAP at N-terminus and PC-Gla at C-terminus of short ferritin monomer fragment, forms nanocage (apparently SEQ ID NO: 14) (protein)
chain: MGGTTFLLRNASGHMSSQIRQNYSTDVEAAVNSLVNLYLQASYTYLSLGFYFDRDDVALEGVSHFFRELAEEKREGYERLLKMQNQRGGRIFLQDIKKPAEDEWGKTPDAMKAAMALEKKLNQALLDLHALGSARTDPHLCDFLETHFLDEEVKLIKKMGDHLTNLHRLGGGSEFVDGGGSGTSANSFLEELRHSSLERECIEEICDFEEAKEIFQNVDDTLAFWSKHVLEHHHHHH
modifications: Fusion polypeptide (1)

Key:
[1] = system: LPS-stimulated HUVEC cells; assay: in vitro permeability assay (Evans blue-bound albumin flux); type: cell-based, human; settings: HUVECs, LPS 100 ng/mL 4 h, up to 100 nM, FIG. 19
Method: For spectrophotometric quantification of endothelial cell permeabilities in response to increasing concentrations of each molecule, the flux of Evans blue-bound albumin across functional cell monolayers was measured using a modified 2-compartment chamber model, as previously described. HUVECs were plated (5×10^4/well) in 12-mm diameter Transwells with a pore size of 3 μm for 3 days. Confluent monolayers of HUVECs were exposed to LPS (100 ng/mL) for 4 h before being subjected to PC-Gla with TRAP, TFG, or TFMG (up to 100 nM). Transwell inserts were then washed with TBS (pH 7.4), followed by the addition of Evans blue (0.5 mL; 0.67 mg/mL) diluted in a growth medium containing 4% BSA. Fresh growth medium was then added to the lower chamber, and the medium in the upper chamber was replaced with Evans blue/BSA. Ten minutes later, the optical density of the sample in the lower chamber was measured at 650 nm.

[2] = system: LPS-stimulated HUVEC cells; assay: cell-cell adhesion assay (leukocytes to HUVEC monolayers); type: cell-based, human; settings: HUVECs, LPS 100 ng/mL 4 h, FIG. 21B
Method: Adherence of monocytes to endothelial cells was evaluated by fluorescent labeling of monocytes, as previously described. Briefly, monocytes were labeled with 5 μM Vybrant DiD for 20 min at 37° C. in phenol red-free RPMI containing 5% FBS. After washing, the cells (1.5×10^6 cells/mL, 200 μL/well) were resuspended in adhesion medium (RPMI containing 2% fetal bovine serum and 20 mM HEPES). The cells were then added to confluent monolayers of HUVECs in 96-well plates. Prior to the addition of cells, HUVECs were treated PC-Gla with TRAP, TFG, or TFMG for 6 h, followed by treatment with LPS (100 ng/mL, 4 h). Quantification of cell adhesion was determined as previously described.

[3] = system: IL-6, IL-10, TNF-α; assay: blood inflammatory cytokines (ELISA) in CLP-induced sepsis; type: in vivo, mouse; settings: for level of IL-6 / level of IL-10: FIG. 18A; for level of TNF-α: FIG. 18B
Method: (§1) To induce inflammation, male mice were anesthetized with 2% isoflurane (JW Pharmaceutical, Republic of Korea) in oxygen delivered via a small rodent gas anesthesia machine (RC2, Vetequip, Pleasanton, Calif.), first in a breathing chamber and then via a facemask. They were allowed to breathe spontaneously during this procedure. The CLP-induced inflammation model was prepared as previously described. In brief, a 2-cm midline incision was made to expose the cecum and adjoining intestine. The cecum was then tightly ligated with a 3.0-silk suture at 5.0 mm from the cecal tip and punctured once using a 22-gauge needle for the induction of high grade inflammation. It was then squeezed gently to extrude a small amount of feces from the perforation site and returned to the peritoneal cavity. The laparotomy site was then sutured with 4.0-silk. In sham control animals, the cecum was exposed but not ligated or punctured and then returned to the abdominal cavity. This protocol was approved by the Animal Care Committee at Kyungpook National University prior to the conduct of the study (IRP No, KNU 2012-13).
Fresh serum was used for assaying aspartate transaminase (AST), alanine transaminase (ALT), blood urea nitrogen (BUN), creatinine, and LDH using biochemical kits (Mybiosource). To determine the concentrations of IL-6, IL-10, and TNF-α, commercially available ELISA kits were used according to the manufacturer's protocol (R&D Systems). Values were measured using an ELISA plate reader (Tecan, Austria GmbH, Austria).

[4] = system: PAR-1; assay: PAR-1 cleavage assay in transfected HUVECs (ALP activity); type: cell-based; settings: FIG. 13
Method: HUVECs at 90% confluence in 24-well plates were transiently transfected with pRc/RSV containing ALP-PAR-1-TF cDNA in antibiotic-free Opti-MEM medium using Lipofectamine (Invitrogen) according to the manufacturer's instruction. On the following day, cells were washed and incubated in serum-free medium for 5 h. Cells were then incubated for an additional hour with thrombin, TRAP, TFG, or TFMG. Conditioned medium was collected and centrifuged to remove cellular debris. Supernatant was collected, and ALP (alkaline phosphatase) activity was measured using EnzoLyte™ p-nitrophenyl phosphate alkaline phosphatase assay kit (AnaSpec, San Jose, Calif.) according to the manufacturer's instructions.

[5] = target: T1, EPCR (Mus musculus, UniProt Q64695); assay: histological analysis of EPCR binding in vivo (mouse vena cava); settings: injected intravenously, FIG. 11
T1 construct: from tissue; host or cells: mouse vena cava
T1 sequence (Q64695 18-242): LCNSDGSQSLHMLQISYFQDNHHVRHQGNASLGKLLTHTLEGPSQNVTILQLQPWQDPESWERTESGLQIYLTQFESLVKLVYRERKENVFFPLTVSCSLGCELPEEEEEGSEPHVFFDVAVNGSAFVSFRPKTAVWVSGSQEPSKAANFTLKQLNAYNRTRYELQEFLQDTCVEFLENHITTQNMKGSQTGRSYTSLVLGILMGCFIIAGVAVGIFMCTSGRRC
Method: Twenty-four hours prior to CLP surgery, fluorescence labeled-PC-Gla, TFG, and TFMG (200 nM/mouse) was intravenously injected into the mice, respectively. After 24 h, mouse vena cava was enucleated and fixed in visikol for 24 h. Subsequently, vena cava was embedded in optimum cutting temperature (OCT) compound (Tissue Tek) at −80° C. Consecutive sections were incubated with anti-EPCR antibody (Santa Cruz, Calif.), anti-rabbit Alexa 488 (green), anti-CD31 antibody, and anti-rabbit Alexa 350 (blue), and observed by confocal microscopy at 63× magnification (TCS-SP5, Leica microsystem, Germany).

[6] = system: CLP-induced sepsis; assay: survival in animal model of CLP-induced sepsis; type: in vivo, mouse; settings: for survival rate: in comparison with PC-Gla and TRAP co-administration group, FIG. 14; for overall effectiveness in sepsis treatment: taken together, in comparison with PC-Gla and TRAP co-administered group
Method: Male C57BL/6 mice (6-7 weeks of age, 18-20 g) were purchased from Orient Biotech (Seongnam, Gyeonggi Province, Republic of Korea) and used after 12 days of acclimation. Five mice per cage were housed under the conditions of a controlled temperature (20-25° C.), humidity (40-45%), and 12:12 h day/night cycle, while being fed with a normal rodent pellet and water ad libitum. All animals were treated according to the Guidelines for the Care and Use of Laboratory Animals issued by Kyungpook National University.
as §1
All experiments were performed independently at least three times. Values are expressed as means±SEM. The statistical significance of differences between test groups was evaluated using SPSS for Windows, version 16.0 (SPSS, Chicago, Ill.). Statistical relevance was determined by one-way analysis of variance (ANOVA) and Tukey's post-test. P values less than 0.05 were considered to indicate a statistical significance. Survival analysis of CLP-induced sepsis was performed using Kaplan-Meier analysis.

Row | Molecule | in vitro endothelial cell permeability [1] | adhesion of leukocytes [2] | level of IL-6 [3] | level of IL-10 [3] | level of TNF-α [3] | PAR-1 cleavage activity (ability to activate PAR-1) [4] | in vivo binding by immunohistochemistry [5] | survival rate [6] | overall effectiveness in sepsis treatment [6]
1 | B1 | alleviated | inhibited | mitigated | mitigated | mitigated | strong similarities | colocalized with EPCR and CD31 | significantly improved | more effective antiseptic than TFG
2 | B2 | alleviated | inhibited | mitigated | mitigated | mitigated | strong similarities | colocalized with EPCR and CD31 | significantly improved | significantly effective

Source: US10513545B2, “Fusion polypeptide in which anti-inflammatory polypeptide and ferritin monomer fragment are bound and pharmaceutical composition for preventing and treating inflammatory diseases, containing same as active ingredient” (KYUNGPOOK NATIONAL UNIVERSITY INDUSTRY-ACADEMIC COOPERATION …, priority 2015, dated 2019)
